Data from US20050209137A1 (published 2005).

T1: long form of human leptin receptor, stably transfected in BAF/3 cells (cell homogenate) (human, UniProt P48357 22-1165)
T1 construct: whole, on cells; also called WT in BAF/3 cell homogenate; full-size membrane-embedded leptin receptor
T1 sequence (looked up): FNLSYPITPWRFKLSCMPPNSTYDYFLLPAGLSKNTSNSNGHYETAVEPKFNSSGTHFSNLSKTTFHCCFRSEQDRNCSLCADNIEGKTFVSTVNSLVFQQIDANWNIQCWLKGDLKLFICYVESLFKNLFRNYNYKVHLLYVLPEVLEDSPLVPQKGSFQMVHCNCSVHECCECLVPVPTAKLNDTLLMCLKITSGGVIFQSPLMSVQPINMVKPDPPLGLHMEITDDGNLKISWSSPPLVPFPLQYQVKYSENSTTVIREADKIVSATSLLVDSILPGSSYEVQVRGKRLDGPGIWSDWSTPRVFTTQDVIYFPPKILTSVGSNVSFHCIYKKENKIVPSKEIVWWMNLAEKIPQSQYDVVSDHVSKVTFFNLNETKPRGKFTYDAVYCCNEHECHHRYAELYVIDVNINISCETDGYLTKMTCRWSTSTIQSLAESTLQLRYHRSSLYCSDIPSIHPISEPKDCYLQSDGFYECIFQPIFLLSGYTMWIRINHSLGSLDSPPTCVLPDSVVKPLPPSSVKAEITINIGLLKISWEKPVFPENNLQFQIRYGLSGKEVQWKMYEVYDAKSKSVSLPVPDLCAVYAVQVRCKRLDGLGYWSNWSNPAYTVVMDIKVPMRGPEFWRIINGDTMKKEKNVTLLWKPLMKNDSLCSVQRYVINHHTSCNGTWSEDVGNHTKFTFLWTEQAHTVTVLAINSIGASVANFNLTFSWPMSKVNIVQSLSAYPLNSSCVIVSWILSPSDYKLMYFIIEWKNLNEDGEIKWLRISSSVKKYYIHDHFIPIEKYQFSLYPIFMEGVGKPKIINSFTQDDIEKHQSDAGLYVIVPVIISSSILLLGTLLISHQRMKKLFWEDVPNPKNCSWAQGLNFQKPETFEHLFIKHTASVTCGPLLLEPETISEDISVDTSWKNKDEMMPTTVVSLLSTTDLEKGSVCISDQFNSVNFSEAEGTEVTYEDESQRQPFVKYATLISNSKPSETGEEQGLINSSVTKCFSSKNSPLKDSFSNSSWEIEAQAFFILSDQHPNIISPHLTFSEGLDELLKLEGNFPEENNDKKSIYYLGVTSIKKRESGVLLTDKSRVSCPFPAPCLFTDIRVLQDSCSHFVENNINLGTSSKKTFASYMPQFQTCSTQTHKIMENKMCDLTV

B1: recombinant human leptin receptor leptin-binding domain (LBD), amino acids 428-635 of the human leptin receptor (receptor)
chain: MAIDVNINISCETDGYLTKMTCRWSTSTIQSLAESTLQLRYHRSSLYCSDIPSIHPISEPKDCYLQSDGFYECIFQPIFLLSGYTMWIRINHSLGSLDSPPTCVLPDSVVKPLPPSSVKAEITINIGLLKISWEKPVFPENNLQFQIRYGLSGKEVQWKMYEVYDAKSKSVSLPVPDLCAVYAVQVRCKRLDGLGYWSNWSNPAYTVVMD
notes: also called hLBD; human LBD
B2: ovine leptin (fraction SP) (ligand, UniProt Q28603 1-146, looked up)
chain: VPIRKVQDDTKTLIKTIVTRINDISHTQSVSSKQRVTGLDFIPGLHPLLSLSKMDQTLAIYQQILASLPSRNVIQISNDLENLRDLLHLLAASKSCPLPQVRALESLESLGVVLEASLYSTEVVALSRLQGSLQDMLRQLDLSPGC
B3: recombinant chicken leptin receptor binding domain (chLBD), amino acids 419-624 of the chicken leptin receptor (receptor)
chain: MAVDVNINIKCETDGYLTKMTCRWSANPNALLLGSSLQLRYHRSKIYCSNFPSTPPESEVKECHFQRNHSYECTFQPVFLLSGYTMWIELKHSLGTLESSPTCVVPADVVKPLPPSNIKAEITRNDGLLNVSWTNPVFTNDDLKFQIRYAVNREELTWELYEVLSVPTRSAVIEVQLCVEYIVQIRCRALDGLGYWSNWSRSAYAAVKD
notes: also called CLBD
B4: chicken leptin (ligand, UniProt O42164 19-163, looked up)
chain: VPCQIFQDDTKTLIKTIVTRINDISHTSVSAKQRVTGLDFIPGLHPILSLSKMDQTLAVYQQVLTSLPSQNVLQIANDLENLRDLLHLLAFSKSCSLPQTSGLQKPESLDGVLEASLYSTEVVALSRLQGSLQDILQQLDISPEC
notes: also called chLeptin; ChLeptin

Columns and labels:
recombinant human leptin [1] = biological target: T2, recombinant human leptin (human, UniProt P41159 22-167); assay: SPR, hLEP immobilized on CM5, LBD in flow
T2 construct: mature; also called hLEP; hLeptin
Procedure: Kinetic Measurements of LBD-hLEP Interactions—All experiments were performed at 25° C. using surface plasmon resonance (SPR) methodology. The kinetics and equilibrium constants for the interaction between hLEP and LBD were determined using the Biacore 3000 system (Uppsala, Sweden). hLEP was immobilized in a flow cell of a research-grade CM5 sensor chip using amine-coupling chemistry (Lofas, S. et al (1990) J. Chem. Soc. Chem. Commun. 21, 1526-1528). The immobilization steps were carried out at a flow rate of 10 μl/min in HBS-EP buffer. The surface was activated for 7 min with a mixture of N-hydroxysuccinimide (0.05 M) and N-ethyl-N′(3-dimethylaminopropyl)-carbodiimide hydrochloride (0.2 M). hLEP was injected at a concentration of 50 μg/ml in 10 mM acetate, pH 3.5, until the desired level (1000 resonance units) was achieved. Ethanolamine (1 M, pH 8.5) was injected for 7 min to block the remaining activated groups. A control surface was prepared by activating the carboxyl groups and then blocking the activated groups by ethanolamine as described. […] Regeneration of the surface after each interaction was performed by using a 10-μl pulse of 10 mM glycine buffer, pH 2. […]
SPR Determination of the Interaction between hLEP and LBD—The interactions of hLEP and LBD were analyzed by comparison with a theoretical model using Chi-square analysis.

[2] = biological target: B2; assay: cell-based or functional assay
recombinant human leptin [3] = biological target: T2, recombinant human leptin; assay: cell-based or functional assay
chicken leptin [4] = biological target: B4; assay: cell-based or functional assay
[5] = biological target: B2; assay: cell-based or functional assay; remark: listed apart in the source
recombinant human leptin [6] = biological target: T2, recombinant human leptin; assay: cell-based or functional assay; remark: listed apart in the source
[7] = biological target: B1; assay: competition of unlabeled leptin with 125I-human leptin for binding to soluble recombinant LBD, precipitation of the complex and counting
Procedure: (§1) The specific binding (%) in experiments performed with human, ovine, and chicken leptins and their mutants were, respectively, 7.3% in A, and 8.1% in B, and the nonspecific binding was respectively, 5.4 and 14%. All values for specific binding were normalized, and the solid lines and the IC₅₀ values were calculated using the PRIZMA curve-fitting program (Author, A. (1994) GraphPad Prism™, Version 2.0, GraphPad Software Inc., San Diego, Calif.).
(§2) Binding Assays—Radiolabeled human ¹²⁵I-leptin served as a ligand, and other (human, ovine, and chicken) nonlabeled leptins served as competitors. The experiments were conducted using either recombinant LBD or homogenates of BAF/3 cells stably transfected with the long form of hLEP receptor. In the latter case, the cells were cultured in Dulbecco's modified Eagle's medium supplemented with 5% fetal calf serum in the presence of IL-3 to minimize leptin-receptor down-regulation until a concentration of 10⁶ cells/ml was reached. Then the cells were spun and stored at −70° C. […] Then supernatant was carefully aspirated, and the precipitates were counted in a Kontron ?-counter.

[8] = biological target: T1, long form of human leptin receptor, …; assay: competition of unlabeled leptin with 125I-human leptin for binding to homogenate of BAF/3 cells transfected with the long form of human leptin receptor
Procedure: as §1, §2

recombinant human leptin [9] = biological target: T2, recombinant human leptin; assay: Scatchard plot (bound/free against bound) of the binding of 125I-hLep to chLBD, inset
recombinant human leptin [10] = biological target: T2, recombinant human leptin; assay: SPR
chicken leptin [11] = biological target: B4; assay: SPR
[12] = biological target: B2; assay: gel filtration of hormone:chLBD mixtures at various molar ratios, retention times printed over the peaks
[13] = biological target: long form of human leptin receptor, stably transfected in BAF/3 cells (cell homogenate) (human) (UniProt P48357); assay: competition with 125I-hLEP, homogenate of BAF/3 cells with long-form human leptin receptor
[14] = biological target: B1; assay: SPR
[15] = biological target: B3; assay: inhibition of binding of 125I-hLep to chLBD by unlabeled leptin; the curve only falls to about 66 % at the highest concentration shown (about 10^-4.2 M), the printed value lies beyond the range
Procedure: Binding Assays—Radiolabeled human ¹²⁵I-leptin served as a ligand, and other (human, ovine, and chicken) nonlabeled leptins served as competitors. The experiments were conducted using either recombinant LBD or homogenates of BAF/3 cells stably transfected with the long form of hLEP receptor. In the latter case, the cells were cultured in Dulbecco's modified Eagle's medium supplemented with 5% fetal calf serum in the presence of IL-3 to minimize leptin-receptor down-regulation until a concentration of 10⁶ cells/ml was reached. Then the cells were spun and stored at −70° C. […] Each tube contained 150 or 200 μl of reaction buffer in the case of the assay with the cells or recombinant LBD, respectively, 100 μl of ¹²⁵I-hLEP (100,000 cpm for cells or 180,000 cpm for binding domain assays), and 100 μl of different leptin solutions (providing 0-5000 ng/tube) in the reaction buffer, and the reaction was started by addition of 150 μl of cell homogenate or 100 μl of LBD (20 ng). The tubes were incubated for 24 h at room temperature. Then the leptin receptor complex was precipitated by adding 250 μl of 1% (w/v) bovine immunoglobulin and 500 μl of 20% (w/v) polyethylene glycol. After thorough mixing, the tubes were incubated for 20 min at 4° C. and centrifuged at 12,000×g for 15 min at 4° C. Then supernatant was carefully aspirated, and the precipitates were counted in a Kontron ?-counter. […]

T2 sequence (P41159 22-167): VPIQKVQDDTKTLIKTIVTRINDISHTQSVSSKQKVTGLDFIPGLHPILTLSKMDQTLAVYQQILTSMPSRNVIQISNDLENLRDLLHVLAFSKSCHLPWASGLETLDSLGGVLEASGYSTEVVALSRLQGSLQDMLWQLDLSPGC

## B1
Recombinant human leptin [1]
  complex half-life: 6.24 min
[2]
  molar excess of LBD required to achieve 50% inhibition of leptin-stimulated proliferation of BAF/3 cells with the long form of human leptin receptor: 200 molar excess
Recombinant human leptin [3]
  molar excess of LBD required to achieve 50% inhibition of leptin-stimulated proliferation of BAF/3 cells with the long form of human leptin receptor: 200 molar excess
Chicken leptin [4]
  molar excess of LBD required to achieve 50% inhibition of leptin-stimulated proliferation of BAF/3 cells with the long form of human leptin receptor: 600 molar excess
[5]
  IC50 (read off the curve): ~20 nM
Recombinant human leptin [6]
  IC50 (read off the curve): ~20 nM

## B2
[7]
  IC50 (read off the curve): ~8 nM
[8]
  IC50 (read off the curve): ~0.6 nM

## B3
Recombinant human leptin [9]
  Kd: 3.9 nM
Recombinant human leptin [10]
  Kd: 78.5 nM
  koff: 0.0143 s⁻¹
  kon: 183000 M⁻¹ s⁻¹
Chicken leptin [11]
  Kd: 1300 nM
  koff: 0.076 s⁻¹
  kon: 58300 M⁻¹ s⁻¹
[12]
  binding result: binds

## B4
[13]
  fold lower capacity to displace than hLEP: 20 fold
[14]
  Kd: 380 nM
  koff: 0.0052 s⁻¹
  kon: 13500 M⁻¹ s⁻¹
[15]
  IC50: 88000 nM
